± gives the uncertainty stated by the source.
assay: amyloid nucleation score (Sup35N fusion, yeast selection) (log enrichment); library NNK3; higher = more nucleation; inactive = no reads after selection
Outline: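 Plasmid inserts were Illumina-sequenced at input and output from psi-negative yeast expressing Sup35N fused to peptides of 20 random codons. The yeast were induced with 100 μM copper sulfate for 24 hours and grown 7 days at 30°C on medium lacking adenine and uracil, and sequences with under 100 input reads were excluded. Nucleation score is the DiMSum log enrichment of output over input reads, centred on the mode score of non-aggregating sequences.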

Amyloid nucleation score, -0.005 ± 1.1:
RAGVVVFIRRLRRLMGTLGA

Amyloid nucleation score, 2.78 ± 0.054:
RGWVPVTVIQWIMIDCQFKA

Amyloid nucleation score, 0.744 ± 0.13:
RILALCGHRGNGLQGYILLD

Amyloid nucleation score, 2.34 ± 0.081:
QYTCDDSCILFCCASWAEWS

Amyloid nucleation score, 1.23 ± 0.095:
QLCGLAAWDFFCLVGHILKK

Amyloid nucleation score, 2.86 ± 0.054:
QLNGCYCQFWMMKARTTKFH

Amyloid nucleation score, 0.405 ± 0.23:
RGYEQERLWSSVWHFYNHWL

Amyloid nucleation score, 0.838 ± 0.14:
RGANYVFGWKITVNAFEGEC

Amyloid nucleation score, -0.039 ± 0.53:
QALPSRLGSAGFDYWPPAMS

Amyloid nucleation score, 0.294 ± 0.25:
QQRHMLS

Amyloid nucleation score, -0.155 ± 0.8:
QTYCYKEMFLITERWIPHSP

Amyloid nucleation score, 0.088 ± 0.75:
QFCVQRFYGVEKKLLTLWGF

Amyloid nucleation score, inactive:
PYWIGNIFVEPSSD
QAIGSKRT
QCQFYTSMMSAR
QCRSLITRWGDSVYCLWTK
QDFKCRRGNY
QDPLVT
QDVVNPPLFY
QELQYLKAGSKF
QEYSGHATSGAHMRWAYSVE
QFAKIPIALTSVYRIKDGLY
QFDLAMMSVVCYVFFMYWFL
QFKVLYPGREGDAKCHVGAR
QFRFSFASYFMRSVSIGWIG
QGAMVD
QGDRLENKTLQVLHEKARSR
QGMALPLTTGGGVNKRTCYG
QGMSAFYYVYGLKLWLHLLL
QGVCWLVV
QHLLYSPIEPIVPSVWDIVD
QHSFVNSIFSSLGTLRKNLL
QKAVIGM
QKEDFIVSLWYRVRLFDRNS
QKESYHY
QKMCKPVFV
QKMGRGARKCMQLYVMGKDL
QKVVFW
QLIVRSGKDSGVLWNLGQYR
QLRACPWYSEVFIEI
QLVRQMTKGVG
QMCVVPTTY
QNGCRLMTCC
QNPTWC
QNVRLTMLLFRNKVYS
QPWFMEVL
QQHRSALRVQVHRVCGNSVI
QQIFRDNCPVGSRFIFLSR
QQNQVSIDGCWV
QRFVSIFPGI
QRMMHFVLCVGFDRGIVPVK
QRTFG
QRVMFFCAMSLNKPRSV
QRVWRMMQNLSRW
QSASHRP
QSCCKQQILYHRGQTRHQ
QSFGSHYASVMAKY
QSGSTLTMLQWVIPSDSKLM
QSLLSVGEWNAQHMSLSSGR
QSRMLELS
QSSIHTFCLTLLLSKTYSYQ
QSSLVDGWKNLTKVRCGDYS
QSYDL
QTLFRTLWRFIIITAKQSSD
QTLRGCSNCRTRVGC
QVLCWFISTADLLLAK
QVPLCHMAGKQNLVSRAQTC
QVTDEGD
QWKSSLDWRRCW
QWLAEGYT
QYLPGRTVFCMQIYDVQLYP
QYRGCG
QYTFVGDLMVDLITKTVMLM
RAFLPYYAGYEDRTQSWL
RANSIC
RAQKVPCVIFSYTWIRSMSD
RARMV
RARNTKLCNLSVCMTMGPEA
RASKRLCWSG
RAYMVGCYDCSSYLDPFSYS
RAYTDV
RCFRLIKVLKLLTVFEIITF
RCLSNN
RCRCTFYCFRVL
RCRKHALLFHRCILGYSVLP
RCWNKVFLSYQTELI
RCYALDFRWLILDVSYHGWG
RDCCYLTFALVPSHGLLKVK
RDCSSAIYKCTWCMSF
RDFITRSSECSESD
RDGNRVQMVSIPIQVSAMLG
RDLKFGWGWMGRTEISWYLF
RDNYDAFMIL
RDQEHSRTFISM
RDYLYGNDMSNVKGYRRRWY
REITSWLDIDFL
RERVATFQQPTRHGGGSLAS
REVPT
REWIGLSTYDSA
RFATGCDYLLRRW
RFFLYFNCAWVILMWCKRIV
RFGDVHDCVVVSNGNLRNES
RFISLVRNYFFTCCRRRSMF
RFLLVVMF
RFNFNFFRSRSHLSVFTQFG
RFNHMRNGFWRSIS
RFRFILRCC
RFSSSSQPFYSFAIVRR
RFSYVVTRSG
RFVTSLYDMLSI
RGAGSTESLTNGRGSIAIHR
RGFFSHWSFDVTHYVLVRTL
RGIKWWILDFWVDMHTCMFK
RGKYFGCYLSVYSHL
RGQGKHNSRYFCLIT
RGRMLDHGSS
RGTSSQ
RGVFLTEEASFIGELSLCSA
RGYGTSDRIAALMWLSRWFQ
RHLTVWLL
RHMPYNGLKNDKIFYILNYT
RHVQG
RICWSDINWYNRIFLIAELC
RIDSMRRMGYLNSIFGCFV
RIFSFT
RIGVTYWGICSLKLT
RILRVRF
RINSRHLLNVLAVRKTIQGS
RIRFKRGVPSVVAHVVLR
RIRGTCMGL
RISYKVRHTSNLVKTWCYTW
RITPLDCLSNGRQ
RITSDALG
RIVYCSFTKVG
RIWPSGSC
RIYDYFLFSCYRV
RIYLA
RKLCINGCVFTAMREFC
RKYGTLCKGCVL

Amyloid nucleation score, 1.84 ± 0.083:
RHVVGCSYNVIGCFYVVLRI

Amyloid nucleation score, 1.23 ± 0.15:
RASFVLRCFKIDDVVVQFHL

Amyloid nucleation score, 0.678 ± 0.19:
RGLHLGSSTWIPTAREC

Amyloid nucleation score, 0.661 ± 0.13:
RAHICSYSFAIYVFVCN

Amyloid nucleation score, 0.425 ± 0.47:
QATVISRVYNWAGLSDCVVV

Amyloid nucleation score, 0.368 ± 0.22:
QWSGDDTT

Amyloid nucleation score, 1.05 ± 0.23:
QTGCIPNER

Amyloid nucleation score, 1.04 ± 0.11:
QQVVSLEGRRTKVTLTYQGS

Amyloid nucleation score, -0.009 ± 0.35:
RLAFVHKMTLRMSRERYLAI

Amyloid nucleation score, -0.928 ± 2.5:
QNVGIVYRTST

Amyloid nucleation score, 0.125 ± 0.75:
QYLTRVHSPEDGTMA

Amyloid nucleation score, 2.53 ± 0.07:
QFFIFFACLVLVVITLT

Amyloid nucleation score, -0.425 ± 0.59:
RIVSVFLDNEQISRNGAVSS

Amyloid nucleation score, 0.424 ± 0.75:
RCSCLTFVVSTK

Amyloid nucleation score, 1.26 ± 0.1:
RCSVVTSFQGICMACKYAGG

Amyloid nucleation score, 1.99 ± 0.051:
RIFFKVCNVRLSVADFSHYV

Amyloid nucleation score, 2.32 ± 0.06:
RKLSNIYFVIGDGMWGSHGW

Amyloid nucleation score, 0.81 ± 0.17:
RILVMVNKG

Amyloid nucleation score, 0.022 ± 0.52:
QCCIMAITLDYFASPRYIVR

Amyloid nucleation score, 0.819 ± 0.15:
RLAGSFKLKSVYKGMLDYLA

Amyloid nucleation score, 1.82 ± 0.089:
RITLSIDLLSSEYNRIAPRR

Amyloid nucleation score, 2.8 ± 0.082:
RFSTQAENGVSIIFNLVCFN

Amyloid nucleation score, 1.74 ± 0.064:
RCLCDPGYCCIFISENWIL

Amyloid nucleation score, 1.75 ± 0.07:
QSDHTLPMCRSSLRICVSGR

Amyloid nucleation score, 0.226 ± 0.68:
QPPHKARGACYIRVFYRCTG

Amyloid nucleation score, 1.34 ± 0.097:
RGYRAK
